Laboratory results taken from patent US20100273722A1, “MODIFIED MINIATURE PROTEINS” (Yale University, priority 2007, published 2010).

T1: human Lck (residues 62-128) SH3 domain-GST fusion (human), P06239
T1 chain: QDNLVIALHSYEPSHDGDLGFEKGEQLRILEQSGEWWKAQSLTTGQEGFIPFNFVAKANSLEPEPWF


Legend:
[1] = biological target: Down-regulated Hck kinase (containing an N-terminal His6 tag); assay: cell-based or functional assay
[2] = biological target: T1, human Lck (residues 62-128) SH3 …; assay: fluorescence polarization, 50 nM labeled peptide, SH3-GST titrated
[3] = biological target: human Lyn (residues 62-122) SH3 domain-GST fusion protein (human), P07948; assay: as above
Chain of human Lyn (residues 62-122) SH3 domain-GST fusion protein (human), P07948 (P07948 62-122): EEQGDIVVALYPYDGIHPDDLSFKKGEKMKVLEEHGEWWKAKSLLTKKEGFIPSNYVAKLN

[4] = biological target: human Fyn (residues 81-142) SH3 domain-GST fusion protein (human), P06241; assay: as above
Chain of human Fyn (residues 81-142) SH3 domain-GST fusion protein (human), P06241 (P06241 81-142): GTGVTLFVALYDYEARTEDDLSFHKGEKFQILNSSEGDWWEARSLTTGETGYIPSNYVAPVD

Activity (nmol · sec^-1), activator at 50 micromolar (nmol · sec^-1) [1]	Fold-Activation, activator at 50 micromolar [1] [fold]	Kact (concentration of activator at half-maximal activation) [1] [µM]	Kd [2] [µM]	Kd [3] [µM]	Kd [4] [µM]	Binder
139	13	48				APPLPPRNRGDDAPVEDLIRFYDNLQQYLNVVTRHRY (designed binder) [PP2]
83.9	7	48				APPLPPRNRPRDAPVEDLIRFYDNLQQYLNVVTRHRY (designed binder) [PP3]
83.6	8					APPLPPRNPGDDAPVEDLIRFYDNLQQYLNVVTRHRY (designed binder) [PP1]
			> 20	2	1.4	CGGAPPLPPRNRPR (modifications not checked) [^Flu1, fluorescently labeled analog of Peptide 1]
